Measured values reported in patent US9949464.

Target: green fluorescent protein (GFP), EGFP expressed from pCAG-GFP [GFP: P42212]
Experiment: cell-based or functional assay

“CRE-DOG (Cre-recombinase Dependent on GFP), GBP2+GBP7 combination: N-CreintG with C-CreintG” gave an induction of recombination of a floxed luciferase reporter in 293T cells of 20 to 60 fold.
